Here are results for 1 molecule from patent publication US7364887B2, “Use of PAK inhibitor for the treatment of a joint disease” (Sanofi-Aventis Deutschland GmbH, priority 2003, dated 2008).

Holding throughout (format): cell-based, human
Test [1] has as its system IL-1β induced expression of PGE2 in SW1353 cells. As to the kind of experiment: PGE2 in supernatants by ELISA after overexpression of PAK1-ID in SW1353 cells. The conditions noted are these: SW1353 cells transfected with pCEP4_PAK1-ID vs void vector; IL-1β and TNFα both 10 ng/ml for 24 h; ELISA of supernatant. The method, then:
The PAK1 inhibitory domain was subcloned into the pCEP4 vector and transfected into SW1353 cells. Cells were stimulated with a combination of IL-1β and TNFα both at a concentration of 10 ng/ml for 24 h. Supernatants were collected and the amount of MMP13 protein was determined by ELISA. Values in arbitrary units represent the mean of two experiments. The punctured column represents the experiments with no vector plus IL1β and TNFα. The chequered column represents the experiments with the vector pCEP4 (void vector) plus IL1β and TNFα. The black column represents the experiments with the vector pCEP4_PAK1-ID plus IL1β and TNFα. […]
(§1) Cultures of human SW1353 chondrosarcoma were grown in Dulbecco's modified Eagles's medium (DMEM) containing 10% fetal calf serum (FCS) and penicillin/streptomycin (37° C., 5% CO2). […] The transfection efficiency was examined with a FACScan (Becton Dickinson Immunocytometry Systems, Inc., Mountain View, Calif., U.S.A.) and on an inverted fluorescence microscope. […]
(§2) Human embryonic kidney (HEK) 293 were maintained in Dulbecco's modified Eagle's medium supplemented with 10% fetal calf serum. […] Culture supernatant were removed and expression of IL-8 (R&D Systems, Inc., Minneapolis, Minn., U.S.A.), PGE2 (SpiBiom Inc.), and MMP-13 (Amersham Pharmacia Biotech, Inc.) was monitored by ELISA according to the procedure supplied by the manufacturer. […]
In general terms: In an ELISA, binding on a coated surface is turned into a signal by an enzyme label.

Test [2] relates to IL-1β induced expression of MMP13 in SW1353 cells. As to the kind of experiment: MMP13 protein in supernatants by ELISA after overexpression of PAK1-ID in SW1353 cells. The conditions noted are these: SW1353 cells transfected with pCEP4_PAK1-ID vs void vector, ELISA of supernatant. The method, then: The PAK1 inhibitory domain was subcloned into the pCEP4 vector and transfected into SW1353 cells. Where indicated, IL-1β was used as a stimulus at a concentration of 10 ng/ml for 24 h. Supernatants were collected and the amount of MMP13 protein was determined by ELISA. Values are shown in arbitrary units and represent at least 3 independent results ±SD. The chequered column represents the experiments with the vector pCEP4 (void vector) and the black column represents the experiments with the vector pCEP4_PAK1-ID.
(§3) (Kozak sequence is underlined, hemagglutinin (HA) tag is in bold) and 5′-[…]-3′(SEQ ID NO: 12) (MWG, Biotech AG, Germany). […]
as §1, §2

Test [3] relates to IL-1β induced expression of IL-8 in HEK293 cells. The test is described as follows: IL-8 protein in supernatants by ELISA after transient transfection of PAK1-ID in HEK293 cells. The conditions noted are these: HEK293 cells transiently transfected with pCDNA3.1_PAK1-ID vs void vector; IL-1β 10 ng/ml, time course; ELISA of supernatant. As to the method: The PAK1 inhibitory domain subcloned into the pCDNA3.1 vector was transiently transfected into HEK293 cells. Cells were stimulated with IL-1β at a concentration of 10 ng/ml for the indicated time periods. Supernatants were collected and the amount of IL-8 protein was determined by ELISA. Values in arbitrary units represent the mean of two experiments. The circles represents the experiments with the vector pCDNA3.1_PAK1-ID plus IL-1β and the squares represent the experiments with the vector pCDNA3.1 (void vector) plus IL-1β.
as §3
Human embryonic kidney (HEK) 293 were maintained in Dulbecco's modified Eagle's medium supplemented with 10% fetal calf serum. […] Culture supernatant were removed and expression of IL-8 (R&D Systems, Inc., Minneapolis, Minn., U.S.A.), PGE2 (SpiBiom Inc.), and MMP-13 (Amersham Pharmacia Biotech, Inc.) was monitored by ELISA according to the procedure supplied by the manufacturer.
For the analysis of MMP13, IL-8 and PGE2 protein levels, supernatants of cell cultures were determined by ELISA for MMP13 (Amersham Pharmacia Biotech, Inc.), IL-8 (R&D Systems, Inc. Minneapolis, Minn., U.S.A.) and PGE2 (SpiBio) as described by the supplier. […]

B1: PAK1-ID: Autoinhibitory domain of PAK1, residues 83 to 149 (SEQ ID NO: 6), HA-tagged, overexpressed from pCEP4 or pcDNA3.1 vector in cells (protein, listed as Homo sapiens)
chain: HTIHVGFDAVTGEFTGMPEQWARLLQTSNITKSEQKKNPQAVLDVLEFYNSKKTSNSQKYMSFTDKS
modifications: HA tag
As to B1, the “inhibition of IL-1β induced expression of PGE2” value in test [1] is given as “more than 50%”. In addition, the “inhibition of the IL-1β-induced expression of MMP13” value in test [2] (IL-1β 10 ng/ml for 24 h) is given as ~55%. For the same molecule, the “inhibition of basal MMP13 secretion in non-stimulated cells” value in test [2] (non-stimulated (no IL-1β)) is reported as > 80%. Moreover, in test [3], the “effect on IL-1β induced expression of IL-8” value was “represses the IL-1β induced expression of IL-8”.
